# What was measured:
# micro(μ)-plasmin = micro(μ)-plasmin (human, UniProt P00747 561-580; P00747 581-810); assay: SEC
# [1] = target: tissue plasminogen activator (tPA, Alteplase); assay: SPR
# Glu-plasminogen = assay: SPR
# Chain of Glu-plasminogen (P00747 20-810): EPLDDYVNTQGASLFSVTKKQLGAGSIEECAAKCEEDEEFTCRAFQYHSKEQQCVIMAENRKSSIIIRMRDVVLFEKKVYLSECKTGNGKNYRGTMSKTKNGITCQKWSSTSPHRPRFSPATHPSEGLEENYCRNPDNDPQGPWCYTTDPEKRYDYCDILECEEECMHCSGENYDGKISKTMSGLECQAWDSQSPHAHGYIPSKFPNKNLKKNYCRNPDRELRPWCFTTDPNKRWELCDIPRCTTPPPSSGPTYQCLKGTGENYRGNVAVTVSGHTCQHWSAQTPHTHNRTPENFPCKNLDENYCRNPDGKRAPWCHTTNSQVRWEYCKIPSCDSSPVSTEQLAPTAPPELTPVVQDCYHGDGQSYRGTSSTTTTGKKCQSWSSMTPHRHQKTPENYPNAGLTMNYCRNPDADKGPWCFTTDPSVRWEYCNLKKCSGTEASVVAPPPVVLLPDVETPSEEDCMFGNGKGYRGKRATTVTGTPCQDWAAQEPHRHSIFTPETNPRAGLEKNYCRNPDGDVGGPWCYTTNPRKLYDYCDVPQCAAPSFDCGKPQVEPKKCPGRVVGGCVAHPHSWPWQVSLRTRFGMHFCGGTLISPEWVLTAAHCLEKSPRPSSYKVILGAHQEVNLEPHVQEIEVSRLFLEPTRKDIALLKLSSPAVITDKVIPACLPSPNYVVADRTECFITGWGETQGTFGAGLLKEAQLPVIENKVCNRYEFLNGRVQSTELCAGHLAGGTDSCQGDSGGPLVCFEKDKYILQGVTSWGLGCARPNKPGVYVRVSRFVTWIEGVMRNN
# Chain of micro(μ)-plasmin (P00747 561-580, chain 1 of 2): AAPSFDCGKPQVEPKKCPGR
# Chain of micro(μ)-plasmin (P00747 581-810, chain 2 of 2): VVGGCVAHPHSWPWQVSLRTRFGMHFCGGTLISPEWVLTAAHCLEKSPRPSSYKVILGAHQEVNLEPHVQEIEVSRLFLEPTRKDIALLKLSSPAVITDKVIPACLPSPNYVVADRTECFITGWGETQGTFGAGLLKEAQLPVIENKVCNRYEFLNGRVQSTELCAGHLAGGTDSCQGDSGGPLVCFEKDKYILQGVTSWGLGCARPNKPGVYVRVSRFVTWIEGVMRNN
binding result (micro(μ)-plasmin),Kd [1] [nM],RU at 1 μM analyte [1] [RU],koff [1] [s⁻¹],kon [1] [M⁻¹ s⁻¹],Kd (Glu-plasminogen) [nM],RU at 1 μM analyte (Glu-plasminogen) [RU],koff (Glu-plasminogen) [s⁻¹],kon (Glu-plasminogen) [M⁻¹ s⁻¹],Binder
binds,210,155,0.00019,910,280,86,0.00031,1100,"KD1_(L17R)-KT (Kunitz domain 1 of tissue factor pathway inhibitor-2, Leu17Arg, with C-terminal lysine) (domain or fragment, human, UniProt P48307 30-94, looked up) GNNAEICLLPLDYGPCRARLLRYYYDRYTQSCRQFLYGGCEGNANNFYTWEACDDACWRIEKVPK"
binds,,,,,,12,,,"KD1_(L17R)-VT (Kunitz domain 1 of tissue factor pathway inhibitor-2, Leu17Arg, with C-terminal valine) (domain or fragment, human) GSHMDAAQEPTGNNAEICLLPLDYGPCRARLLRYYYDRYTQSCRQFLYGGCEGNANNFYTWEACDDACWRIEKVPKV"

# — article PMC3985851 (Biochemistry, 2014)
